# In US10969392B2, “Methods and systems for predicting response to immunotherapies for treatment of cancer” (Vanderbilt University, priority 2015, dated 2021):
# Entries after “also recorded” stand apart in the source; their conditions may differ.
# B1: IFNγ: recombinant human IFNγ (R&D Systems) used at 100 ng/mL to stimulate melanoma cell lines and tumour slices (protein, UniProt P01579 24-161, looked up)
# Interferon gamma: QDPYVKEAENLKKYFNAGHSDVADNGTLFLGILKNWKEESDRKIMQSQIVSFYFKLFKNFKDDQSIQKSVETIKEDMNVKFFNSNKKKRDDFEKLTNYSVTDLNVQRKAIHELIQVMAELSPAAKTGKRKRSQMLFRG
# Experiments:
# Type in all cases: cell-based, human
# [1] = system: melanoma cell lines; experiment: IFNγ stimulation of melanoma cell lines, Western blot and phospho-flow (STAT1, STAT5, CIITA)
# Description: (§1) FIGS. 3A-F show characterization of MHC-II(+) melanoma cell lines. Melanoma cell lines were treated with IFNy for 24 h before collection and live-cell staining and flow cytometry analysis for (A) MHC-I (HLA-A/B/C), (B) MHC-II (HLA-DR), and (C) PD-L1. Bars represent mean ±S.E.M. for at least three experiments (D) Representative flow plots from (C). (E) Western blot analysis of melanoma cell lines after 24 or 48 h of IFNy stimulation. (F) Phosphorylation of STAT1 (top row) and STAT5 (bottom row) in melanoma cell lines at 15 min after IFNy stimulation. Histograms were coloured according to the arcsinh transformed ratio or MFI medians relative to the table minimum value.
# Immunoblotting Immunoblotting was performed as previously described^32 Briefly, cells were washed in cold phosphate-buffered saline, collected and lysed in 1×RIPA buffer (50 mM Tris (pH 7.4), 1% NP-40, 150 mM NaCl, 1 mM EDTA, 0.1% SDS, 0.25% sodium deoxycholate, 5 mM NaF, 5 mM Na3VO4, 10% glycerol, […] phenylmethyl-sulphonylfluoride and protease inhibitors) for 30 min on ice. Lysates were sonicated for 2-3 s to shear DNA and cleared by centrifugation at 13,200 r.p.m. for 15 min. Protein concentrations of the lysates were determined by BCA assay (Bio-Rad, Hercules, Calif.). Samples were separated by SDS-PAGE and transferred to nitrocellulose membrane. Membranes were blocked with 5% non-fat dry milk or 5% bovine serum albumin in tris-buffered saline with 0.1% Tween-20 for 1 h at room temperature and then incubated overnight at 4° C. with the appropriate antibody as indicated. Following incubation with appropriate horseradish peroxidase-conjugated secondary antibodies, proteins were visualized using an enhanced chemiluminescence detection system. […]
# Phospho-flow cytometry. […] Samples were analyzed on a LSRII system (BD Biosciences). […]
# [2] = system: melanoma cell lines; experiment: IFNγ stimulation of melanoma cell lines, flow cytometry for HLA-DR and PD-L1; conditions: for HLA-DR surface expression: 100 ng/mL; for HLA-DR expression by flow cytometry: Example 5
# Description: as §1
# FIGS. 4A-D show graphs illustrating mean expression levels of MHC-I, MHC-II, and PD-L1 at baseline and after IFNy stimulation. Melanoma cell lines were treated with 100 ng IFNy for 24 hr (shown as percentage positive in FIGS. 2A-C) prior to harvest and live-cell staining and flow cytometry analysis for (A) MHC-I/HLA-A/B/C, (B) MHC-II/HLA-DR, and (C) PD-L1. Bars represent mean fluorescence intensity ±SEM for 3 experiments. (D) Histograms of HLA-DR surface expression over an extended (24-72 hr) IFNy treatment, as assessed by flow cytometry.
# Cell surface expression mirrored mRNA expression patterns; MHC-I (HLA-A/B/C) was expressed ubiquitously among all cell lines under both basal and stimulated conditions, while MHC-II (HLA-DR) was present only on the intermediate/Ib (SKMEL5 and SKMEL28) and high/Ia cell lines (WM115 and A375; FIGS. 3A-C and 4A-D). […] The high (Ia) WM115 cell line was essentially 100% positive for HLA-DR at both basal and stimulated conditions.
# Standard Flow Cytometry. Flow cytometry was performed using the following antibodies: HLA-DR/PE-Cy7 (Biolegend, clone L243. 1:20). CD274/PD-L1/APC (Biolegend, clone 29E.2A3, 1:200) and HLA-A/B/C-Alexa Fluor488 (1:100, Biolegend, clone W6/32) mouse MHC-II (I-A/I-E 1:20 Biolegend, clone M5/114.15.2). DAPI was used as a viability dye. Samples were analyzed on an Aria III laser system (BD Biosciences)
# Cell and tumor culture. SKMEL-28 and WM115 cell lines were obtained from Dr. Kimberly Dahlman (Vanderbilt University), CHL-1 and HMCB melanoma cell lines were obtained from the laboratory of William Pao (Vanderbilt University). Cell line nature was not directly authenticated, but protein marker expression was consistent with published HLA-DRA mRNA expression patterns (CCLE). Cell lines were confirmed mycoplasma-free and cultured in DMEM containing 10% FBS. Stimulation with recombinant human IFNγ (R&D Systems) was performed at 100 ng/mL. For PDX models and ex-vivo organotypic culture, tumors were freshly resected and sectioned using an Alto tissue matrix sectioner (Roboz Surgical, Gaithersburg, Md.).
# Methods. MHC-I/II mRNA was profiled across 60 MEL cell lines. The transcriptional characteristics of MHC-II+ cell lines were analyzed by Gene Set Analysis. Cell surface expression of MHC-I and MHC-II was confirmed by flow cytometry (FC) in a subset of cell lines under basal and stimulated (IFNγ) conditions. In 26 tumor samples from αPD-1 treated MEL patients, immunohistochemistry (IHC) was performed for HLA-DR (MHC-II) or HLA-A (MHC-I), SOX10, CD4 and CD8. IHC results were correlated with response and progression-free survival (PFS).
# [3] = system: PDX tumors from melanoma patients PT1 and PT2; experiment: Ex vivo organotypic culture of PDX tumour slices with or without IFNγ, Western blot for HLA-DR; conditions: PT1 (anti-PD-1 non-responder) and PT2 (responder) PDX, 24-48 h
# Description: FIGS. 6A-D show Ex vivo culture of tumours derived from anti-PD-1-responding and non-responding patients identifies heterogeneity in interferon response. (A) Patient tumour blocks stained for HLA-DR (brown) and SOX10 (pink) at low (scale bar, 500 um) and high magnification (scale bar, […]); PT1: anti-PD-1 non-responder and PT2: anti-PD-1 responder. (B) Experimental schema. (C) Schema and images of PDX tissue sections (ex vivo organotypic culture). (D) Western blot analysis of tissue sections cultured in the presence or absence of IFNy for 24-48 h.
# To test this hypothesis, patient-derived xenograft (PDX) models were utilized from the tumor resections of two melanoma patients who subsequently received anti-PD1 therapy; patient 1 (PT1; non-responder, 0% HLA-DR-positive, class II/III) and patient 2 (PT2; partial responder, heterogeneous 15% HLA-DR-positive, class Ib) (FIG. 6A). […] The resected tumors from PT1 and PT2 were serially transplanted to athymic nu/nu mice, which are highly deficient in functional T cells, ruling out a possible source of IFNγ (FIG. 6B). […] Thus, HLA-DR may be a marker of IFNγ activity in the microenvironment of some (but not all) tumors.
# Cell and tumor culture. SKMEL-28 and WM115 cell lines were obtained from Dr. Kimberly Dahlman (Vanderbilt University), CHL-1 and HMCB melanoma cell lines were obtained from the laboratory of William Pao (Vanderbilt University). […]
molecule,measurement,setting,value
B1,CIITA expression,"[1]; Western blot, 24 or 48 h stimulation",only induced in HLA-DR+Ia/Ib cells
same,STAT1 activation,"[1]; all cell lines, Western blot 24 or 48 h, phospho-flow 15 min",robustly activated
same,STAT5 activation,"[1]; phospho-flow, 15 min stimulation, 100 ng/mL",preferentially activated by IFNγ in MHC-II(−) cell lines
same,HLA-DR surface expression,"[2]; CHL-1 or HMCB cells, up to 72 hrs",No significant increase
same,HLA-DR expression by flow cytometry,[2]; MHC-II+ (mRNA) cell lines,constitutive and inducible
same,HLA-DR expression by flow cytometry,[2]; MHC-II− cells,did not express or induce
same,HLA-DR surface expression,"[2]; SKMEL28 (intermediate/Ib), 25% positive at baseline, 24 h",potently induced
same,PD-L1 expression,"[2]; all cell lines tested, 24 h stimulation",significantly upregulated; also recorded: potently induced
same,HLA-DR upregulation in cultured tissue slices,[3],only the PT2 PDX model (anti-PD-1 responder) upregulated HLA-DR
